From publication PMC4273445 (eLife, 2014)

Experiments:
Assay in all cases: SPR
[1] = molecular target: fHbp V3.28 Leu (at V1 Leu156) to Ala (N. meningitidis)
[2] = molecular target: fHbp V1.1 Ser185 to Ala (N. meningitidis)
[3] = molecular target: fHbp V2.21 Lys (at V1 Lys107) to Ala (N. meningitidis)
[4] = molecular target: fHbp V2.21 Ala (at V1 Pro265) to Pro (N. meningitidis)
[5] = molecular target: fHbp 2.P25 (N. meningitidis) (UniProt E6MV22)
[6] = molecular target: fHbp V1.1 Gln103 to Ala (N. meningitidis)
[7] = molecular target: fHbp V1.1 Ser302 to Ala (N. meningitidis)
[8] = molecular target: fHbp V1.1 His203 to Ala (N. meningitidis)
[9] = molecular target: fHbp V1.1 Lys191 to Ala (N. meningitidis)
[10] = molecular target: fHbp V3.28 Glu (at V1 Glu283) to Ala (N. meningitidis)
[11] = molecular target: fHbp V3.28 Lys (at V1 His184) to Ala (N. meningitidis)
[12] = molecular target: fHbp 1.P276 (N. meningitidis) (UniProt E6MV22)
[13] = molecular target: fHbp V2.21 Glu (at V1 Glu157) to Ala (N. meningitidis)
[14] = molecular target: fHbp V3.28 Asn (at V1 Asn108) to Ala (N. meningitidis)
[15] = molecular target: fHbp V2.21 Lys (at V1 Lys268) to Ala (N. meningitidis)
[16] = molecular target: fHbp 1.P5 (N. meningitidis) (UniProt E6MV22)
[17] = molecular target: fHbp V2.21 Lys (at V1 His184) to Ala (N. meningitidis)
[18] = molecular target: fHbp V3.28 Ser (at V1 Ser104) to Ala (N. meningitidis)
[19] = molecular target: fHbp 1.P61 (N. meningitidis) (UniProt E6MV22)
[20] = molecular target: fHbp V1.1 Glu183 to Ala (N. meningitidis)
[21] = molecular target: fHbp 1.P15 (N. meningitidis) (UniProt E6MV22)
[22] = molecular target: fHbp V1.1 Val149 to Ala (N. meningitidis)
[23] = molecular target: fHbp V3.28 Lys (at V1 Lys306) to Ala (N. meningitidis)
[24] = molecular target: fHbp 1.P10 (N. meningitidis) (UniProt E6MV22)
[25] = molecular target: fHbp V3.28 Asn (at V1 Gln180) to Ala (N. meningitidis)
[26] = molecular target: fHbp V2.21 Val (at V1 Val149) to Ala (N. meningitidis)
[27] = molecular target: fHbp V3.28 Leu (at V1 Leu289) to Ala (N. meningitidis)
[28] = molecular target: fHbp V2.21 Arg (at V1 Arg106) to Ala (N. meningitidis)
[29] = molecular target: fHbp V3.28 Pro (at V1 Ser182) to Ala (N. meningitidis)
[30] = molecular target: fHbp V1.1 Asp150 to Ala (N. meningitidis)
[31] = molecular target: factor H binding protein (fHbp) V2.21 (N. meningitidis) (UniProt E6MV22)
[32] = molecular target: fHbp V1.1 Phe194 to Ala (N. meningitidis)
[33] = molecular target: fHbp V3.28 Ile (at V1 Ile179) to Ala (N. meningitidis)
[34] = molecular target: fHbp 2.P19 (N. meningitidis) (UniProt E6MV22)
[35] = molecular target: fHbp V3.28 Thr (at V1 Glu304) to Ala (N. meningitidis)
[36] = molecular target: fHbp V1.1 Ser104 to Ala (N. meningitidis)
[37] = molecular target: fHbp V1.1 Phe292 to Ala (N. meningitidis)
[38] = molecular target: fHbp V1.1 Ser286 to Ala (N. meningitidis)
[39] = molecular target: fHbp V2.21 Ile (at V1 Ile154) to Ala (N. meningitidis)
[40] = molecular target: fHbp V1.1 Leu289 to Ala (N. meningitidis)
[41] = molecular target: fHbp 1.P78 (N. meningitidis) (UniProt E6MV22)
[42] = molecular target: fHbp V1.1 Ile154 to Ala (N. meningitidis)
[43] = molecular target: fHbp V2.21 Glu (at V1 Asp262) to Ala (N. meningitidis)
[44] = molecular target: fHbp V2.21 Glu (at V1 His313) to Ala (N. meningitidis)
[45] = molecular target: fHbp V2.21 Leu (at V1 Ile199) to Ala (N. meningitidis)
[46] = molecular target: factor H binding protein (fHbp) V1.1 (N. meningitidis) (UniProt Q9JXV4)
[47] = molecular target: fHbp V3.28 Leu (at V1 Arg195) to Ala (N. meningitidis)
[48] = molecular target: fHbp V3.28 Thr (at V1 Ser286) to Ala (N. meningitidis)

Sequence of CFH67, CCP domains 6 and 7 of complement factor H (P08603 321-443): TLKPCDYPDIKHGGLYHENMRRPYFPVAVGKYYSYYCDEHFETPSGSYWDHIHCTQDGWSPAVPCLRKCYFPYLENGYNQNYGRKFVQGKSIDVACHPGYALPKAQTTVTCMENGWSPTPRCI

Substance: CFH67, CCP domains 6 and 7 of complement factor H (from UniProt P08603 321-443) (domain or fragment)
- Kd [1]: 28.8 nM
- Kd [2]: 3.09 nM
- Kd [3]: 3.06 nM
- Kd [4]: 3.7 nM
- Kd [5]: 0.346 nM
- Kd [6]: 7.03 nM
- Kd [7]: 0.592 nM
- Kd [8]: 1.8 nM
- Kd [9]: 6.4 nM
- Kd [10]: 11.9 nM
- Kd [11]: 2.76 nM
- Kd [12]: 8.9 nM
- Kd [13]: 0.401 nM
- Kd [14]: 3.71 nM
- Kd [15]: 3.28 nM
- Kd [16]: 4.8 nM
- Kd [17]: 3.15 nM
- Kd [18]: 8.99 nM
- Kd [19]: 2.28 nM
- Kd [20]: 7.02 nM
- Kd [21]: 11.7 nM
- Kd [22]: 0.00928 µM
- Kd [23]: 10.7 nM
- Kd [24]: 15.2 nM
- Kd [25]: 8.49 nM
- Kd [26]: 6.9 nM
- Kd [27]: 1.29 nM
- Kd [28]: 5.99 nM
- Kd [29]: 3.06 nM
- Kd [30]: 6.11 nM
- Kd [31]: 1.87 nM
- Kd [32]: 5.04 nM
- Kd [33]: 9.91 nM
- Kd [34]: 1.91 nM
- Kd [35]: 11.7 nM
- Kd [36]: 9.78 nM
- Kd [37]: 6.8 nM
- Kd [38]: 11.3 nM
- Kd [39]: 25.8 nM
- Kd [40]: 1.44 nM
- Kd [41]: 10.5 nM
- Kd [42]: 7.69 nM

Substance: CFHR3_(12), the first two (N-terminal) CCP domains of complement factor H-related 3 (from UniProt Q02985 19-330) (domain or fragment)
- Kd [1]: 51.9 nM
- Kd [2]: 78.5 nM
- Kd [43]: 5.43 nM
- Kd [3]: 4.47 nM
- Kd [4]: 4.12 nM
- Kd [5]: 1.61 nM
- Kd [7]: 17.2 nM
- Kd [8]: 32.6 nM
- Kd [9]: 91 nM
- Kd [10]: 20.6 nM
- Kd [44]: 0.723 nM
- Kd [11]: 3.05 nM
- Kd [12]: 37.9 nM
- Kd [45]: 11.2 nM
- Kd [13]: 2.74 nM
- Kd [14]: 3.21 nM
- Kd [15]: 3.25 nM
- Kd [16]: 55.2 nM
- Kd [17]: 3.13 nM
- Kd [18]: 7.19 nM
- Kd [19]: 26.4 nM
- Kd [20]: 81 nM
- Kd [21]: 56.4 nM
- Kd [22]: 6.54 µM
- Kd [23]: 9.34 nM
- Kd [24]: 119 nM
- Kd [25]: 7.86 nM
- Kd [26]: 5.82 nM
- Kd [27]: 1.18 nM
- Kd [28]: 5.26 nM
- Kd [29]: 3.24 nM
- Kd [30]: 118 nM
- Kd [46]: 59.4 nM
- Kd [31]: 3.73 nM
- Kd [32]: 160 nM
- Kd [33]: 6.98 nM
- Kd [34]: 2.11 nM
- Kd [35]: 17.5 nM
- Kd [36]: 382 nM
- Kd [38]: 93.6 nM
- Kd [39]: 14.8 nM
- Kd [40]: 18.4 nM
- Kd [41]: 80 nM
- Kd [42]: 147 nM
- Kd [47]: 1.76 nM
- Kd [48]: 33.1 nM
